From PMC9706529, “Identification of a S-(2-succino)cysteine breakdown pathway that uses a novel S-(2-succino) lyase” (The Journal of Biological Chemistry, 2022)

Assays:
E. italicus 2SL (Ei) = target: T1, E. italicus 2SL (Ei) (Enterococcus italicus, UniProt E6LDH5); test: HPLC, […] nm, 2SNAC synthesis; format: biochemical; details: 50 mM Tris-HCl pH 8.0, 21 °C, 4.0 mM NAC; synthesis direction; read-out: Kinetic parameter / Km
T1 construct: gene purB; full-length, N-terminal hexahistidine tag (pET28b), expressed in E. coli BL21-(DE3)-RIPL, Ni-NTA purified; tag removal not mentioned
T1 sequence (E6LDH5 1-455): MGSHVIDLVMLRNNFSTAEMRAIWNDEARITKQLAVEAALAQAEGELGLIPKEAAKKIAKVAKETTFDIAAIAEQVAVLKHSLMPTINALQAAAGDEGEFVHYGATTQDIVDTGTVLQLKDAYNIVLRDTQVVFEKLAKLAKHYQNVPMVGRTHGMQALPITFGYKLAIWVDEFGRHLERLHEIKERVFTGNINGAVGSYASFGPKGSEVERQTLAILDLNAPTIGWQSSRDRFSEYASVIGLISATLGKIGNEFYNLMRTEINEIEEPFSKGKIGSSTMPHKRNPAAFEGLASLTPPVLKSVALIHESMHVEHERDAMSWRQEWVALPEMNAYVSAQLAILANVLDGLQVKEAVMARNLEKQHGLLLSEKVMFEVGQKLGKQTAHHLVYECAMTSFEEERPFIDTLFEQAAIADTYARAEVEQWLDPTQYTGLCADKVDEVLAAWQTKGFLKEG

D. dadantii 2SL (Dd) = target: T2, D. dadantii 2SL (Dd) (Dickeya dadantii, UniProt E0SKP1); test: HPLC, […] nm, 2SNAC synthesis; format: biochemical; details: 50 mM Tris-HCl pH 8.0, 21 °C, 4.0 mM NAC; synthesis direction; read-out: Kinetic parameter / Km
T2 construct: gene Dda3937_00284; full-length, N-terminal hexahistidine tag (pET28b), expressed in E. coli BL21-(DE3)-RIPL, Ni-NTA purified; tag removal not mentioned
T2 sequence (E0SKP1 1-454): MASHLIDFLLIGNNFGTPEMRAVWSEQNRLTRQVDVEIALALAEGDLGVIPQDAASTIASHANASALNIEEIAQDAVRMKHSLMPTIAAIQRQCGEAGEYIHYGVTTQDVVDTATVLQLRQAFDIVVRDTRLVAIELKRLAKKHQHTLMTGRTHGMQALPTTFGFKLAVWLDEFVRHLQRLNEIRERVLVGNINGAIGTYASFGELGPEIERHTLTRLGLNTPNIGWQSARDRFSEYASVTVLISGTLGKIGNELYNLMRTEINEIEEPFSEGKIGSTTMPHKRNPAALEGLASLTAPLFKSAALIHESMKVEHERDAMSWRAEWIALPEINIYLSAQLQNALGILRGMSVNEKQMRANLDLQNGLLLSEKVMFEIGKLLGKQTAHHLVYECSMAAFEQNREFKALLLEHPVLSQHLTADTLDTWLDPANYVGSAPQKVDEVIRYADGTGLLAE

purified protein [1] = substrate: CC(=O)N[C@@H](CS)C(=O)O; test: purified protein; format: biochemical, Enterococcus italicus; details: 50 mM Tris-HCl pH 8.0, 21 °C, 30 mM fumarate, synthesis direction
purified protein [2] = substrate: CC(=O)N[C@@H](CSC(CC(=O)O)C(=O)O)C(=O)O; test: purified protein; format: biochemical, Enterococcus italicus; details: 100 mM Tris-HCl pH 8.0, 21 °C, 40 mM glutamate, 2 mM NAD+, breakdown direction
purified protein [3] = substrate: N[C@@H](CS)C(=O)O; test: purified protein; format: biochemical, Enterococcus italicus; details: 50 mM Tris-HCl pH 8.0, 21 °C, 30 mM fumarate, synthesis direction
purified protein [4] = substrate: N[C@@H](CSC(CC(=O)O)C(=O)O)C(=O)O; test: purified protein; format: biochemical, Enterococcus italicus; details: 100 mM Tris-HCl pH 8.0, 21 °C, 40 mM glutamate, 2 mM NAD+, breakdown direction
purified protein [5] = substrate: CC(=O)N[C@@H](CS)C(=O)O; test: purified protein; format: biochemical, Dickeya dadantii; details: 50 mM Tris-HCl pH 8.0, 21 °C, 30 mM fumarate, synthesis direction
purified protein [6] = substrate: CC(=O)N[C@@H](CSC(CC(=O)O)C(=O)O)C(=O)O; test: purified protein; format: biochemical, Dickeya dadantii; details: 100 mM Tris-HCl pH 8.0, 21 °C, 40 mM glutamate, 2 mM NAD+, breakdown direction
purified protein [7] = substrate: N[C@@H](CS)C(=O)O; test: purified protein; format: biochemical, Dickeya dadantii; details: 50 mM Tris-HCl pH 8.0, 21 °C, 30 mM fumarate, synthesis direction
purified protein [8] = substrate: N[C@@H](CSC(CC(=O)O)C(=O)O)C(=O)O; test: purified protein; format: biochemical, Dickeya dadantii; details: 100 mM Tris-HCl pH 8.0, 21 °C, 40 mM glutamate, 2 mM NAD+, breakdown direction

Q: How did the Km (E. italicus 2SL (Ei)) turn out when `O=C(O)/C=C/C(=O)O` [fumarate] was run?
A: 230 ± 20 µM

Q: What about the Km (D. dadantii 2SL (Dd)) of the same molecule?
A: 3240 ± 300 µM

B1: E. italicus 2SL (Ei) (Enterococcus italicus DSM 15952) (protein)
chain: MGSHVIDLVMLRNNFSTAEMRAIWNDEARITKQLAVEAALAQAEGELGLIPKEAAKKIAKVAKETTFDIAAIAEQVAVLKHSLMPTINALQAAAGDEGEFVHYGATTQDIVDTGTVLQLKDAYNIVLRDTQVVFEKLAKLAKHYQNVPMVGRTHGMQALPITFGYKLAIWVDEFGRHLERLHEIKERVFTGNINGAVGSYASFGPKGSEVERQTLAILDLNAPTIGWQSSRDRFSEYASVIGLISATLGKIGNEFYNLMRTEINEIEEPFSKGKIGSSTMPHKRNPAAFEGLASLTPPVLKSVALIHESMHVEHERDAMSWRQEWVALPEMNAYVSAQLAILANVLDGLQVKEAVMARNLEKQHGLLLSEKVMFEVGQKLGKQTAHHLVYECAMTSFEEERPFIDTLFEQAAIADTYARAEVEQWLDPTQYTGLCADKVDEVLAAWQTKGFLKEG
notes: full-length, N-terminal hexahistidine tag (pET28b), expressed in E. coli BL21-(DE3)-RIPL, Ni-NTA purified; tag removal not mentioned
Q: B1 was tested. Which Km (purified protein [1]) did it give?
A: 390 ± 30 µM

Q: What about the Vmax (purified protein [1]) of the same molecule?
A: 105 µmol/min/mg

Q: And the kcat (purified protein [1])?
A: 92.1 ± 7.1 s⁻¹

Q: What about the kcat/Km (purified protein [1]) of the same molecule?
A: 236000 M⁻¹ s⁻¹

Q: What about the Km (purified protein [2]) of the same molecule?
A: 1400 ± 100 µM

Q: What about the Vmax (purified protein [2]) of the same molecule?
A: 2.42 µmol/min/mg

Q: And the kcat (purified protein [2])?
A: 2.12 ± 0.21 s⁻¹

Q: What about the kcat/Km (purified protein [2]) of the same molecule?
A: 1510 M⁻¹ s⁻¹

Q: And the Km (purified protein [3])?
A: 17800 ± 3600 µM

Q: What about the Vmax (purified protein [3]) of the same molecule?
A: 11.9 µmol/min/mg

Q: And the kcat (purified protein [3])?
A: 10.4 ± 1.5 s⁻¹

Q: And the kcat/Km (purified protein [3])?
A: 580 M⁻¹ s⁻¹

Q: And the Km (purified protein [4])?
A: 10700 ± 2300 µM

Q: What about the Vmax (purified protein [4]) of the same molecule?
A: 0.058 µmol/min/mg

Q: And the kcat (purified protein [4])?
A: 0.051 ± 0.004 s⁻¹

Q: And the kcat/Km (purified protein [4])?
A: 4.7 M⁻¹ s⁻¹

B2: D. dadantii 2SL (Dd) (Dickeya dadantii 3937) (protein)
chain: MASHLIDFLLIGNNFGTPEMRAVWSEQNRLTRQVDVEIALALAEGDLGVIPQDAASTIASHANASALNIEEIAQDAVRMKHSLMPTIAAIQRQCGEAGEYIHYGVTTQDVVDTATVLQLRQAFDIVVRDTRLVAIELKRLAKKHQHTLMTGRTHGMQALPTTFGFKLAVWLDEFVRHLQRLNEIRERVLVGNINGAIGTYASFGELGPEIERHTLTRLGLNTPNIGWQSARDRFSEYASVTVLISGTLGKIGNELYNLMRTEINEIEEPFSEGKIGSTTMPHKRNPAALEGLASLTAPLFKSAALIHESMKVEHERDAMSWRAEWIALPEINIYLSAQLQNALGILRGMSVNEKQMRANLDLQNGLLLSEKVMFEIGKLLGKQTAHHLVYECSMAAFEQNREFKALLLEHPVLSQHLTADTLDTWLDPANYVGSAPQKVDEVIRYADGTGLLAE
notes: as for B1
Q: With B2 as the molecule, how does the Km (purified protein [5]) read?
A: 690 ± 50 µM

Q: And the Vmax (purified protein [5])?
A: 27.6 µmol/min/mg

Q: What about the kcat (purified protein [5]) of the same molecule?
A: 24.2 ± 3.7 s⁻¹

Q: What about the kcat/Km (purified protein [5]) of the same molecule?
A: 35000 M⁻¹ s⁻¹

Q: And the Km (purified protein [6])?
A: 1200 ± 220 µM

Q: And the Vmax (purified protein [6])?
A: 0.4 µmol/min/mg

Q: What about the kcat (purified protein [6]) of the same molecule?
A: 0.35 ± 0.05 s⁻¹

Q: And the kcat/Km (purified protein [6])?
A: 290 M⁻¹ s⁻¹

Q: And the Km (purified protein [7])?
A: 19000 ± 1900 µM

Q: What about the Vmax (purified protein [7]) of the same molecule?
A: 11.1 µmol/min/mg

Q: And the kcat (purified protein [7])?
A: 9.7 ± 0.4 s⁻¹

Q: What about the kcat/Km (purified protein [7]) of the same molecule?
A: 510 M⁻¹ s⁻¹

Q: And the Km (purified protein [8])?
A: 12300 ± 1100 µM

Q: And the Vmax (purified protein [8])?
A: 0.069 µmol/min/mg

Q: And the kcat (purified protein [8])?
A: 0.06 ± 0.004 s⁻¹

Q: What about the kcat/Km (purified protein [8]) of the same molecule?
A: 4.9 M⁻¹ s⁻¹
